Experimental data taken from patent publication US20240317834A1, “COMPOSITIONS AND METHODS FOR NEUROLOGICAL DISEASES” (CODA BIOTHERAPEUTICS, INC., priority 2020, published 2024).
Entries after “also recorded” stand apart in the source; their conditions may differ.

Legend:
Type in all cases: cell-based
rat DRG neurons = assay: Whole cell manual patch clamp electrophysiology, ligand-induced currents and EC50 in rat DRG neurons
Description: (§1) Using whole cell manual patch clamp electrophysiology in HEK293 cells, rat DRG neurons and rat hippocampal neurons, the EC50 of the various engineered receptors disclosed herein to Ach and non-native ligands was measured using the Hill equation with peak current measurements from escalating doses of ligand. The rheobase shift was also measured in rat DRG neurons, which reflects the efficacy of the receptors. To calculate the rheobase, first, the amount of current that can produce an action potential was determined. Then the ligand was added, followed by a step wise increase in the current injected up to 700 pA.
(§2) For manual patch clamp experiments, Cells plated on coverslips were visualized at 10× and 40× on an inverted fluorescence microscope (Olympus). Recordings were made with an Axopatch 200B amplifier and Digidata 1550B (Molecular Devices) at RT using 3-6 MOhm glass patch electrodes (Sutter, BF150-86-10). Unless otherwise stated, recordings were made in extracellular solution (ECS) containing: 140 mM sodium chloride, 4 mM potassium chloride, 1 mM magnesium chloride, 2 mM calcium chloride, 10 mM HEPES, and 10 mM D-(+)-glucose (pH=7.3 with sodium hydroxide, osmolarity=305−315 mOsm). An 8-line reservoir (AutoMate Scientific) in combination with an 8-channel zero-dead-volume perfusion pencil (AutoMate Scientific) was used for perfusion. Data was acquired using pClamp software (Molecular Devices). Traces were either analyzed in Clampfit (Molecular Devices) or using custom Python code. Plotting and statistics were performed in GraphPad Prism.
For dose-response, ligand-induced currents were recorded in voltage clamp mode. For HEK cell experiments, recordings took place in the normal ECS with a cesium-based internal solution containing: 140 mM cesium chloride, 5 mM potassium fluoride, 2 mM Calcium chloride, 2 mM magnesium chloride, 10 mM HEPES, and 10 mM EGTA (pH=7.2 with cesium hydroxide, osmolarity=290-295 mOsm). […]

HEK293 cells = assay: Whole cell manual patch clamp electrophysiology, ligand-induced currents and EC50 in HEK293 cells
Description: as §1
as §2, with “An 8-line reservoir (AutoMate Scientific) in combination with an 8-channel zero-dead-volume perfusion pencil (AutoMate Scientific) was used for perfusion. Data was acquired using pClamp software (Molecular Devices).” left out, “Plotting and statistics were performed in GraphPad Prism.” left out
For dose-response, ligand-induced currents were recorded in voltage clamp mode. […]

HEK293T cells = assay: High throughput electrophysiology (IonFlux automated patch clamp), EC50 of engineered receptors to ligands
Description: To confirm the EC50s determined by plate reader as well as develop a better understanding of maximum current flow, the engineered receptors were subjected to high throughput electrophysiology system, as described below. For HEK293T studies, cDNAs encoding ion channels were cloned into pcDNA3.1 using standard recombination techniques. HEK293T cells from Clontech (Lenti-X™ 293T Cell Line) were cultured in DMEM supplemented with 10% FBS and 1% Pen/Strep to 40-50% confluence using standard cell culture protocols, transfected with ion channel plasmids at a concentration of 18 μg per 15 cm dish using Fugene 6, and grown for an additional 24 hours. Cells were then assayed on an electrophysiological system (IonFluxHT and/or Mercury, Fluxion Biosciences) in which dose-response relationships may be assessed through a microfluidics-based platform for establishing whole cell configurations. Ensemble plates were primed with extracellular buffer (140 mM NaCl, 5 mM KCl, 2 mM CaCl2), 1 mM MgCl2, 10 mM HEPES, and 10 mM glucose, pH 7.2 with NaOH, mOsm 310), intracellular buffer (145 mM CsCl, 2 mM CaCl2), 2 mM MgCl2, 10 mM HEPES, and 10 mM EGTA, pH 7.2 with CsOH, mOsm 305), as adapted from Lynagh and Lynch, and test compounds (stocks prepared fresh) diluted in extracellular buffer. Cells were then released from the plate with Accutase, centrifuged, resuspended in extracellular buffer, and loaded into Ensemble plates. Cells were then subjected to a standard protocol for priming, trapping, breaking, and establishing whole cell configuration, with cells held at −60 mV throughout the recording. After recording baseline, progressive doses of test compounds were applied using the IonFlux software to assess dose response relationships. Data were then analyzed off-line using custom Python scripts to convert data to .csv format, re-plot traces, and apply QC measurements to reject unstable recordings (i.e. thresholding based on access resistance and/or standard deviation in baseline, as well as artifact rejection). Peak currents were then calculated, and population data were fit using a 4-parameter logistic equation as described by the Hill Equation. Currents were measured on an automated patch clamp system (Fluxion Biosciences) following 1 second addition of drug and the EC50 values calculated are tabulated below in Table 22 below and Table 21 above (in Example 2).

B1: CODA806: engineered chimeric LGIC receptor, Y115D, L131Q in SEQ ID NO: 33 (protein)
chain: MRCSPGGVWLALAASLLHVSLQGEFQRKLYKELVKNYNPLERPVANDSQPLTVYFSLSLLQIMDVDEKNQVLTTNIWLQMSWTDHYLQWNVSEYPGVKTVRFPDGQIWKPDILLDNSADERFDATFHTNVQVNSSGHCQYLPPGIFKSSCPMDLKNFPMDVQTCKLKFGSWSYGGWSLDLQMQEADISGYIPNGEWDLVGIPGKRSERFYECCKEPYPDVTFTVTMRRRMGYYLIQMYIPSLLIVILSWISFWINMDAAPARVGLGITTVLTMTTQSSGSRASLPKVSYVKAIDIWMAVCLLFVFSALLEYAAVNFVSRQHKELLRFRRKRRHHKSPMLNLFQEDEAGEGRFNFSAYGMGPACLQAKDGISVKGANNSNTTNPPPAPSKSPEEMRKLFIQRAKKIDKISRIGFPMAFLIFNMFYWIIYKIVRREDVHNQ
modifications: synthetic sequence of chimeric LGIC
Q: B1 was tested. Which “chloride current on application of RG-3487 (SA-2)” value (rat DRG neurons; cultured adult rat DRG neurons expressing the receptor, not observed in non-transduced cells) did it give?
A: Its value is “generated chloride current in a dose dependent manner”.

Q: And the “sensitivity to RG-3487 compared with wildtype nAchRa7 receptor” value (rat DRG neurons; cultured rat DRG sensory neurons)?
A: The value was “way more sensitive”.

Q: And the sensitivity to acetylcholine (rat DRG neurons; cultured rat DRG sensory neurons, compared with wildtype nAchRa7 receptor)?
A: The sensitivity to acetylcholine was “essentially insensitive”.

Q: What about the “sensitivity to RG-3487 compared with wildtype nAchRa7 receptor” value (HEK293 cells) of the same molecule?
A: The value was “way more sensitive”.

Q: And the “sensitivity to acetylcholine, current generated” value (HEK293 cells; Ach up to 100 mM, compared with wildtype nAchRa7 receptor, listed as Y115D and L131Q in SEQ ID NO: 33)?
A: The value was “essentially insensitive; also recorded: almost no current could be generated”.

Q: What about the “fold increased potency towards RG-3487 compared with wild type receptor” value (HEK293T cells; ligand RG-3487) of the same molecule?
A: The value was “over 10 fold”.

Q: And the “fold reduced potency to acetylcholine compared with wild type receptor” value (HEK293T cells; ligand acetylcholine)?
A: Its value is “over 500 fold”.
